# Laboratory results reported in the nanobody polyreactivity screen of Harvey et al. (2022).
# Assay: yeast display, Sf9 membrane polyspecificity reagent, FACS + sequencing; frameworks hold sequencing errors
# Method in brief: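 Polyreactivity labels are assigned by the sorting gate from which each nanobody was recovered. The gates were low and high (top ~1%), set on anti-HA fluorescence for expression and streptavidin fluorescence for reagent binding. Before sorting, galactose-induced (36–48 hours) yeast display cells were stained for 1 hour at 4 °C with 10% biotinylated, detergent-solubilized Sf9 membrane reagent.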
row,Sequence,polyreactivity (PSR sort gate)
1,QVKLVESGGGLVQAGGSLRLSCAASGRIFNWYAMGWYRQAPGKERELVAAITSGGSTNYADSVKGRFTISRDNAKNTVYLQMNSLKPEDTAVYFCNARGRFRGYRYYYWGQGTQVTVSS,high polyreactivity
2,QVQLVESGGGLVQAGGSLRLSCAASGRTFNTNAMGWYRQAPGKERELVAAISGGGSTYADSVKGRFTISRDNAKNTVYLQMNSLKPEDTAVYYCKAYPPYLYATYDYWGQGTQVTVSS,low polyreactivity
3,QVQLVESGGGLVQAGGSLRLSCAASGFTFDDYAMGWYRQAPGKERELVAAIDDDSSTNYADSVKGRFTISRDNAKNTVYLQMNSLKPEDTAVYYCNARARVSGKWYNYWGQGTQVTVSS,high polyreactivity
4,QVQLVESGGGLVQAGGSLRLSCAASGSSFDVYTMGWYRQAPGKERELVAAINTGGGSTYYADSVKGRFTISRDNAKNTVYLQMNSLKPEDTAVYYCAASVYHYGPLYYWGQGTQVTVSS,low polyreactivity
5,QVQLVESGGGLVQAGGSLRLSCAASGFIFYKNAMGWYRQAPGKERELVAAISASGVRTYYADSVKGRFTISRDNAKNTVYLQMNSLKPEDTAVYYSAADYTPEYYWGQGTQVTVSS,high polyreactivity
6,QVQLVESGGGLVQAGGSLRLSCAASGRTFARYVMGWYRPAPGKERELVASISNSGGSTYYADSVKGRFTISRDNAKNTVYLQMNSQKPEDTAVSYCARRYYYWGQGTQVTVSS,high polyreactivity
7,QDQLVESGGGLVQAAGSLRLTCAASGLTFAYYAMGWNRQAPGKERELVAAISWNGGRTYYADSVKGRFTISRDNAKNTVYLQMNSLKPEDTAVDYCAAEVTSSFYWGQGSQVTVSS,high polyreactivity
8,QVQLVESGGGLVQAGGSLRLSCAASGFTFWTYAMGWYRQAPGKERELVAAIDSGGSTYYADSVKGRFTISRDNAKNTVYLQMHSLKPEDTAVYYCNAGPSVTSGYDYDYWGQGTQVTVSS,low polyreactivity
9,QVQLVESGGGLVQAGGSLRLSCAASGFILRAYAIGWYRQAPGKERELVAAITSATSTNYADSVKGRFTISRDNAKNTVYLQMNSLKPEDTAVYYCAADGGGGEFSYDSWGQGTQVTVSS,low polyreactivity
10,QVQLVESGGGLVQAGGSHRFRCAASGSTIVSDAMGLYRHAPGKERELDATISWRGGSTYYADSVKGRFTISRDNAKNTVYLQMNSLKPEDTAVYDCAADLWHSQYYYGYEYWGQGTQVNVSS,low polyreactivity
11,QLQLVESGGGLVQAGGSLRLSCAASGRTFSIYAMGWSRQATGKERELVAAIRWSGGSTYYADSVKGRFTISRDNAKNSVYLQMNSLKPEDTAVYYCATRSRGLKFDYWGQGTLVTVSS,high polyreactivity
12,QVQLVESGGGLVQAGGSLRLSCAASGLIFTRYTMGWYRQAPGKERELVAGISWSGGRTYYADSVKGRFTISRDKAKYTVYLQMNSLKPEDTAVYYCAADSYYSRAYDYWGQGTQVTVSS,high polyreactivity
13,QVQLEDSGGGLVQAGGSLPLSCAASGGTFTDYAMGWYRQAPGKERELVAAISSVGSTNYADSVKGRFTISRDNAKNTVYLQMNSLKPEDTAVYYCAVDYGRAVQVDSITYDFNYWGQGTQVNVSS,low polyreactivity
14,QVQLVESGGGLVQAGGSLRLICAASGSTFNYNAMGSSRQAPGKERELVAAISQTTSRTYYADSVKGRFTISRDNAKNTVYLQMNSLKPEDTAVYYCATKRWTRDRQRPRTQYYLFYYWGQGTQVTVSS,high polyreactivity
15,QVQLVESGGGLVQAGGSLRLSCAASGSTFSSYAMGWYRQAPGKERELVAATYYADSVKGRFTISRDNAKNTVYLQMNSLKPEDTAVYYCNADNAYQGGKEYDYWGQGTQVTVSS,low polyreactivity
16,HAQLQESGVGLVQAGGSLRRSCAASGSIFRFSGMGWYRRATGKERELVASIGFGSITYYADRVKVRFTISRDNANNTVYLQMTSLKPEDTAVYYCAVQVQDESWLDYWGQGTQVTVSC,low polyreactivity
17,QVQLVESGGGLVQAGGSLRLSCAASGSTFQGYTMGWYRQAPGKERELVAAISVRRGITYYADSVKGRFTISRDNAKNTVYLQMNSLKPEDTAVYYCNAYYYRPYGNKYGYWGQGTQVTVSS,high polyreactivity
18,QVQLVESGGGLVQAGGSLRLSCAASGRILQYNVMGWYRQAPGKERELVATISSGGTTNYADSVKGRFTISRDNAKNTVYLQMNSLKPEDTAVYYCAAGLPRKRVQYDYWGQGTQVTVSS,low polyreactivity
19,QVQLVESGGGLVQAGGSLRLSCAASGRTFYQYAMGWYRQAPGKERELVAAISRRGGSTYYADSVKGRFTISRDNAKNTVYLQMNSLKPEDTAVYYCAARVRGKYDYWGQGTQVTVSS,high polyreactivity
20,QVQLVESGGGLVQAGGSLRLSCAASGRIFYNYVMGWYRQAPGKERELVAAISSSGGSTYYADSVKGRFTISRDNAKNSVYLQMNSLKPEDTAVYYCSAETYQLTWVLYYYWGQGTQVTVSS,high polyreactivity
21,QVQLVESGGGLVQAGGSLRLSCAASGNIFYNGMGWYRQAPGKERELVAAIRGSAGRTYADSVKGRFTISRDNAKNTVYLQMNILKPEDTAVYYCAAAKRYYSEMYWGQGTQVTVSS,high polyreactivity
22,QVQLVESGGGLVQAGGSLRLSCAASGSTFYSNAMGWYRQAPGKERELVAAISRRGSSTYYADSVKGRFTISRDNAKNTVYLQMNSLKPEDTAVYYCNAVGTGGYSSEYGYWGQGTQVTVSS,high polyreactivity

row,Sequence,polyreactivity (PSR sort gate)
1,QVQLVESGGGLDQAGGSLRLICAASGSTFRYNAMGWYRQAPGKERELVAAISSSGGSTRYADSVKGRFTISRDNAKNTVYLQMNSLKPEDTAVYYCAVRFYDWRYYYWGQGTQVTVSS,high polyreactivity
2,QVQLVESGGGLVQAGGSLRLSCAASGITFGRYAMGWYRQAPGKERELVAAITTRGGSTYYADSVKGRFTISRDNAKNTVYLQMNSLKPEDTAVYYCAADYRWAGRYYYWGQGTQVTVSS,high polyreactivity
3,QVHLVESGGGLVQAGGSLRLSCAPSGFIFDYYTMGWYRQAPGKESELVAAITWSGGRTNYADSVKGRFTISRDNAKYTVYLQMNSLKPEDTAVYYCNARRRARGAPYYLYGYSGQGTQVTVSS,low polyreactivity
4,QVQLVESGGGLVQAGGSLRLSCAASGSIFGGNAMGWYRQAPGKERELVAAITDGGNTNYADSVKGRFTISRDNAKNTVYLQINSLKPEDTAVYYCAARIPGTYGGRYGYDYWGQGTQVTVSS,low polyreactivity
5,QVQLVESGGGLVQAGGSLRLSCAASGRIFRPYAMGWYRQAPGKERELVAGITSSGGSTYYADSVEGRFTISRDNAKNTVYLQMNSLKPEDTAVYYCAAVHGLFRPLHYYWGQGTQVTVSS,low polyreactivity
6,QVQLVESGGGLVQAGGSLRLSCAASGRTFYAYAMGWYRQAPGKERELVSAISWRGGDTYYADSVKGRFTISRDYAKNTVYLQMHSLIPEDTAFYYCAADFTYTWDAAQGYDYWGQGPQVTVSS,low polyreactivity
7,QVQLVESGGRLVQSGGSLRLSCAASGRIFLYYTMGWYRQAPGKERELVATIRSGDSTNYADSVKGRFTISRDNAKNTVYLQMNSLKPEVTAVYYCAADWDIFQQGANGAPYDYWGQGTQVTVSS,low polyreactivity
8,QVQLVESGGGLVQAGGSLRLSCAASGSTFDWYTMGWYRQATGKERELVADITSGGSTYYADSVKGRFTISRDNAKNTVYLQMNSLKPEDTAAYYCNAYLYTWRWAFDYWGQGTQVTVSS,high polyreactivity
9,QVQLVESGGGLVQAGGSLRLSCADSGSIFGVNVMGWYRQAPGKDRELVAAITSIGGRTYYADSVKGRFTISRDNAKNTVYLQMNSLKPEDTAVYYCNADYTGAEYDYWGQGTQVTVSS,low polyreactivity
10,QVQLVESGGGLVQAGGSLRLSCAASGSIFGLYAMGWYRQAPGKERELVAAISRSGGSTYYADSVKGRFTISRDNAKNTVYLQMYSLKPEDSAVYDCNALRWSQYTYSSRLGHFDSWGQGTQVTVSS,high polyreactivity
11,QVQLVESGGGLVQAGGSLPLSCAASGSIFKTYAMGWYREAPGKERELVAAIRDSGDRTYYADSVKGRFTISRDNAKNTVYLQMNSLKPEDTAVYYCNARWQEALKYDYWGQGTQVTVSS,low polyreactivity
12,QVQLVESGGGLVQAGGSLRLSCAASGSIFNGNAMGWYRQAPGKERELVARITSGSSTYYADSVKGRFTISRDNAKNTVYLQMNSLKPEDTAVYYCAAVYGRYISYRWRSLYDYWGQGTQVTVSS,high polyreactivity
13,QVQLVESGGGLVQAGGSLRLSSAASGSIFGYAMGCDRHAPGKERELVASTTYADSVKGRFTISRDNAKNTVYLQMNSLKPEDTAVYYCAAEDRPLYWRFPDEMDYWGQGTQVTVSS,low polyreactivity
14,QVQLVESGGGLVQAGGSLRLSCAASGSILIYNAMAWYRQAPGKEMQLVAGISRRGASTYYADSVKGRFTISRDMAKNTVYLPMNSLKPEDTAVYYCAALGKYIVAWSGDYWGQGTQVNVSS,low polyreactivity
15,QVQLVESGGGLVQAGGSLRLSCAASGSIFRTNAMGWYRQAPGKERELVAAITGSGGSTYYADSVKGRFTISRDNAKNTVYLQMNSLKPVDTAVYYCAADGQLPPRGILASWEFDYWGQGTQVTVSS,low polyreactivity
16,QVQLVESGGGLVQAGGSLRLSCAASGSIFAWYAMGWYRQAPGKERELVAVITRGGSTNYADSVKGRFTISRDNAKNTVYLQMNSLKPEDTAVYYCAAGSYYSWYPFDYWGQGTQVTVSS,low polyreactivity
17,QVQLVESGGVLVQAGGSLRLTCAASGRIFQNYAMGWYRQAPAKERELDATISSGVSTYYADSVKGRFTISRDNAKNTVYLQMNSLKPEDTAVYYCAAYVPWFEMDYWGQGTQVTVSS,low polyreactivity
18,QVQLVESGGGLVQAGGSLRLICAAYGITIGVYAMGWYRQAPVKERELVAAISSSGDTTYYADSVKGRFTISRDNAKNTVYLQKNSLKPEDTAVYYSAAYSHHQFSRSEYYYWGQGTQVTVSS,low polyreactivity
19,QVQLVESGGCLVQAGGSLRLSCAASGSTLVIYAMGWYRQAPGKESELVAAINFSDGSTSYADSVKGRFTISRDNAKNTVYLQMNSLKPEDTAVYYCAADWWYGYSNYDYWGQGTQVTVSS,low polyreactivity
20,QVQLVESGGGLVQAGGSLRLSCAASGIIFKVYAMGWYRQAPGKERELVAAISKSGGSTYYADSVKGRFTISRDNAKNTVYLQMNSLNPEDTAVYYCAARDYARYASYYYWGQGTQVTVSS,high polyreactivity
21,QVQLVESGGGLVQAGGSLRLSCAASGRTFLGYAMGWYRQAPGKERELVAAITWRGGITYYADSVKGRFTISRDNAKNTVYLQMNSLKPEDTAVYYCARDYGQYGWYRYGRTFDNWGQGTQVTVSS,high polyreactivity
